Experimental data: publication PMC7035337, “Binding of the periplakin linker requires vimentin acidic residues D176 and E187” (Communications Biology, 2020)
“And” between values parts separate entries of the source, which are not always exact repeats. Equal values may be shown once.

B2: vimentinROD, wild-type (residues T99-I249, coils 1A and 1B) (domain or fragment)
chain: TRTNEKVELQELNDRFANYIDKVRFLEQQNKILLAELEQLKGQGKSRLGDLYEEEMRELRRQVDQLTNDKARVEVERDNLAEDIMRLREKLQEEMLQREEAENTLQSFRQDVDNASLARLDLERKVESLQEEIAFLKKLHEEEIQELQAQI
modifications: NT647 fluorescent dye (Monolith NT His-Tag Labelling Kit RED-tris-NTA)
notes: human vimentin, residues T99-I249; Non-cleavable His tag

Experiments:
Details in all cases: both partners purified
[1] = target: B2; assay: MST; as a1 but 10 mM NaCl: 50 nM NT647-labelled vimentinROD, periplakin linker titrated; 25 °C; one-ligand binding model
[2] = target: T1, vimentinROD E172K (human, UniProt P08670 99-249, E172K, NT647 fluorescent dye (Monolith NT His-Tag Labelling Kit RED-tris-NTA)); assay: MST; 50 nM NT647-labelled vimentinROD, linker titrated 780 nM to 800 μM; 150 mM NaCl, 20 mM HEPES pH 7.5, 0.015% Tween 20; 25 °C; MST-on time 5 s; one-ligand binding model; single experiments or merged data sets
T1 construct: human vimentin, residues T99-I249

[3] = target: T2, vimentinROD E180K (human, UniProt P08670 99-249, E180K, NT647 fluorescent dye (Monolith NT His-Tag Labelling Kit RED-tris-NTA)); assay: as above
T2 construct: human vimentin, residues T99-I249

[4] = target: B2; assay: MST; as a1 but 50 mM NaCl: 50 nM NT647-labelled vimentinROD, periplakin linker titrated; 25 °C; one-ligand binding model
[5] = target: B2; assay: MST; 50 nM NT647-labelled vimentinROD, linker titrated 780 nM to 800 μM; 150 mM NaCl, 20 mM HEPES pH 7.5, 0.015% Tween 20; 25 °C; MST-on time 5 s; one-ligand binding model; single experiments or merged data sets
[6] = target: T3, periplakin linker domain R1713E (human, UniProt O60437 1646-1756, R1713E); assay: as above
T3 construct: human periplakin linker domain, residues K1646-K1756; also called Periplakin R1713E
T3 sequence (looked up): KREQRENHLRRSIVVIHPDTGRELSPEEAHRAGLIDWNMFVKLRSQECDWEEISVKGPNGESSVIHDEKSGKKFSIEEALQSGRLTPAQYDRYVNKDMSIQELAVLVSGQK

[7] = target: T4, periplakin linker domain K1687E/R1689E (human, UniProt O60437 1646-1756, K1687E | R1689E); assay: as above
T4 construct: human periplakin linker domain, residues K1646-K1756
T4 sequence (looked up): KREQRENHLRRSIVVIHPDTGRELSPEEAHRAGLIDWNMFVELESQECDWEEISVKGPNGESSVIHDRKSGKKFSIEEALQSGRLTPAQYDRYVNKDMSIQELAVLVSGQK

[8] = target: T5, periplakin linker domain R1655E/R1656E (human, UniProt O60437 1646-1756, R1655E | R1656E); assay: as above
T5 construct: human periplakin linker domain, residues K1646-K1756
T5 sequence (looked up): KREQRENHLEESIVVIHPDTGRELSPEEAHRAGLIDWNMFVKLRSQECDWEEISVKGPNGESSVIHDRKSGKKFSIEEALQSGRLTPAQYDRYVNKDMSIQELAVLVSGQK

[9] = target: T6, periplakin linker domain R1713E/K1714E (human, UniProt O60437 1646-1756, R1713E | K1714E); assay: as above
T6 construct: human periplakin linker domain, residues K1646-K1756
T6 sequence (looked up): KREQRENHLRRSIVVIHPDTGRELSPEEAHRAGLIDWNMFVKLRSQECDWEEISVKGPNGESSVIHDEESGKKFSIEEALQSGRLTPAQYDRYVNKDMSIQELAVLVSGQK

[10] = target: T7, periplakin linker domain R1737E/K1741E (human, UniProt O60437 1646-1756, R1737E | K1741E); assay: as above
T7 construct: human periplakin linker domain, residues K1646-K1756
T7 sequence (looked up): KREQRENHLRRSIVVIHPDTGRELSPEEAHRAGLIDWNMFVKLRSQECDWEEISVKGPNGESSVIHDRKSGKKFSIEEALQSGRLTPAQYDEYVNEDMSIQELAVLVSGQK

[11] = target: T8, vimentin^ROD (residues T99–I249), wild-type (human, UniProt P08670 99-249, NT647 fluorescent dye (Monolith NT His-Tag Labelling Kit RED-tris-NTA)); assay: MST; as the standard MST assay (50 nM labelled vimentin^ROD, linker titrated) but in 10 mM NaCl
T8 construct: vimentin, human, coils 1A and 1B of the central rod domain, residues T99-I249; Non-cleavable His tag; also called wild-type vimentin^ROD

[12] = target: T9, vimentin^ROD (residues T99–I249) E180K (human, UniProt P08670 99-249, E180K, NT647 fluorescent dye (Monolith NT His-Tag Labelling Kit RED-tris-NTA)); assay: MST; 50 nM NT647-labelled vimentin^ROD, linker titrated 780 nM to 800 uM; 150 mM NaCl, 20 mM HEPES pH 7.5, 0.015% Tween 20; 25 C; one-site binding model
T9 construct: vimentin, human, coils 1A and 1B of the central rod domain, residues T99-I249

[13] = target: T8, vimentin^ROD (residues T99–I249), …; assay: as above
[14] = target: T10, vimentin^ROD (residues T99–I249) E172K (human, UniProt P08670 99-249, E172K, NT647 fluorescent dye (Monolith NT His-Tag Labelling Kit RED-tris-NTA)); assay: as above
T10 construct: vimentin, human, coils 1A and 1B of the central rod domain, residues T99-I249

[15] = target: T11, vimentin^ROD (residues T99–I249) D162K (human, UniProt P08670 99-249, D162K, NT647 fluorescent dye (Monolith NT His-Tag Labelling Kit RED-tris-NTA)); assay: as above
T11 construct: vimentin, human, coils 1A and 1B of the central rod domain, residues T99-I249

[16] = target: T12, vimentin^ROD (residues T99–I249) E229K (human, UniProt P08670 99-249, E229K, NT647 fluorescent dye (Monolith NT His-Tag Labelling Kit RED-tris-NTA)); assay: as above
T12 construct: vimentin, human, coils 1A and 1B of the central rod domain, residues T99-I249

[17] = target: T13, vimentin^ROD (residues T99–I249) D176K (human, UniProt P08670 99-249, D176K, NT647 fluorescent dye (Monolith NT His-Tag Labelling Kit RED-tris-NTA)); assay: as above
T13 construct: vimentin, human, coils 1A and 1B of the central rod domain, residues T99-I249; also called D176K vimentin^ROD; vimentin mutant D176K
T13 sequence (P08670 99-249 D176K): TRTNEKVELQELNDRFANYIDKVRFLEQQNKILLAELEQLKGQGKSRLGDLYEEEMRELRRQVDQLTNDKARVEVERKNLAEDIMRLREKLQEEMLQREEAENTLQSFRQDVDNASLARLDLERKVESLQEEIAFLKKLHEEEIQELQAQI

T2 sequence (P08670 99-249 E180K): as the sequence (P08670 99-249 D176K) above, with K78D, E82K counted along it
T8 sequence (P08670 99-249): as the sequence (P08670 99-249 D176K) above, with K78D counted along it
T1 sequence (P08670 99-249 E172K): as the sequence (P08670 99-249 D176K) above, with E74K, K78D counted along it
T9 sequence (P08670 99-249 E180K): as the sequence (P08670 99-249 D176K) above, with K78D, E82K counted along it
T12 sequence (P08670 99-249 E229K): as the sequence (P08670 99-249 D176K) above, with K78D, E131K counted along it
T11 sequence (P08670 99-249 D162K): as the sequence (P08670 99-249 D176K) above, with D64K, K78D counted along it
T10 sequence (P08670 99-249 E172K): as the sequence (P08670 99-249 D176K) above, with E74K, K78D counted along it

B1: periplakin linker domain, wild-type (residues K1646-K1756) (domain or fragment, human)
chain: KREQRENHLRRSIVVIHPDTGRELSPEEAHRAGLIDWNMFVKLRSQECDWEEISVKGPNGESSVIHDRKSGKKFSIEEALQSGRLTPAQYDRYVNKDMSIQELAVLVSGQK
notes: human periplakin linker domain, residues K1646-K1756; also called Periplakin Linker Wild-type
Q: For B1, which Kd [1] is on record?
A: 31 µM and 32 µM and 30.2 µM

Q: What about the Kd [2] of the same binder?
A: 26 µM and 24 µM and 27 µM and 29 µM

Q: What about the Kd [3] of the same binder?
A: 8 µM and 4 µM and 3 µM and 5.7 µM

Q: And the Kd [4]?
A: 59 µM and 69 µM and 71 µM and 66 µM

Q: What about the Kd [5] of the same binder?
A: 59 µM and 66 µM and 70 µM and 85 µM

Q: For B2, which Kd [6] is on record?
A: 210 µM and 160 µM and 240 µM

Q: And the Kd [7]?
A: 312 µM and 306 µM and 273 µM

Q: And the Kd [8]?
A: 351 µM and 382 µM and 444 µM

Q: And the Kd [9]?
A: 143 µM and 145 µM and 123 µM

Q: What about the Kd [10] of the same binder?
A: 57 µM and 43 µM and 29 µM and 47.9 µM

B3: periplakin linker domain (K1646–K1756), wild-type (domain or fragment, human, UniProt O60437 1646-1756, looked up)
chain: KREQRENHLRRSIVVIHPDTGRELSPEEAHRAGLIDWNMFVKLRSQECDWEEISVKGPNGESSVIHDRKSGKKFSIEEALQSGRLTPAQYDRYVNKDMSIQELAVLVSGQK
notes: periplakin linker domain, human, residues K1646-K1756; Vector pGEX-6P-1; also called wild-type periplakin linker; WT
Q: How did the Kd [11] turn out when B3 was run?
A: 31 ± 2 µM

Q: And the Kd [12]?
A: 6 ± 2 µM

Q: What about the Kd [13] of the same binder?
A: 70.5 ± 3.8 µM

Q: And the Kd [14]?
A: 27 ± 4 µM

Q: And the Kd [15]?
A: 68 ± 4 µM

Q: What about the Kd [16] of the same binder?
A: 16 ± 2 µM

B4: periplakin linker domain (K1646–K1756) K1687E/R1689E (domain or fragment, human, UniProt O60437 1646-1756, looked up)
chain: KREQRENHLRRSIVVIHPDTGRELSPEEAHRAGLIDWNMFVELESQECDWEEISVKGPNGESSVIHDRKSGKKFSIEEALQSGRLTPAQYDRYVNKDMSIQELAVLVSGQK
notes: periplakin linker domain, human, residues K1646-K1756
Q: How did the Kd [13] turn out when B4 was run?
A: 300 ± 54 µM

B5: periplakin linker domain (K1646–K1756) R1655E/R1656E (domain or fragment, human, UniProt O60437 1646-1756, looked up)
chain: KREQRENHLEESIVVIHPDTGRELSPEEAHRAGLIDWNMFVKLRSQECDWEEISVKGPNGESSVIHDRKSGKKFSIEEALQSGRLTPAQYDRYVNKDMSIQELAVLVSGQK
notes: as for B4
Q: With B5 as the binder, how does the Kd [13] read?
A: 380 ± 51 µM

B6: periplakin linker domain (K1646–K1756) R1713E (domain or fragment, human, UniProt O60437 1646-1756, looked up)
chain: KREQRENHLRRSIVVIHPDTGRELSPEEAHRAGLIDWNMFVKLRSQECDWEEISVKGPNGESSVIHDEKSGKKFSIEEALQSGRLTPAQYDRYVNKDMSIQELAVLVSGQK
notes: periplakin linker domain, human, residues K1646-K1756; also called periplakin mutant R1713E; periplakin linker mutant R1713E
Q: What does the source list for B6?
A: Kd [17]: 23 ± 4 µM; Kd [13]: 200 ± 29 µM

B7: periplakin linker domain (K1646–K1756) R1713E/K1714E (domain or fragment, human, UniProt O60437 1646-1756, looked up)
chain: KREQRENHLRRSIVVIHPDTGRELSPEEAHRAGLIDWNMFVKLRSQECDWEEISVKGPNGESSVIHDEESGKKFSIEEALQSGRLTPAQYDRYVNKDMSIQELAVLVSGQK
notes: as for B4
Q: B7 was tested. Which Kd [13] did it give?
A: 135 ± 30 µM

B8: periplakin linker domain (K1646–K1756) R1737E/K1741E (domain or fragment, human, UniProt O60437 1646-1756, looked up)
chain: KREQRENHLRRSIVVIHPDTGRELSPEEAHRAGLIDWNMFVKLRSQECDWEEISVKGPNGESSVIHDRKSGKKFSIEEALQSGRLTPAQYDEYVNEDMSIQELAVLVSGQK
notes: periplakin linker domain, human, residues K1646-K1756; also called control double mutant
Q: For B8, which Kd [13] is on record?
A: 48 ± 11 µM

B9: desmoplakin linker domain (Q2454–N2565) E2495K/C2497R (domain or fragment, human, UniProt P15924 2454-2565, looked up)
chain: QTSQKNTLRKRRVVIVDPETNKEMSVQEAYKKGLIDYETFKKLREQECEWEEITITGSDGSTRVVLVDRKTGSQYDIQDAIDKGLVDRKFFDQYRSGSLSLTQFADMISLKN
notes: desmoplakin linker domain, human, residues Q2454-N2565
Q: Which Kd [13] does the source give for B9 here?
A: 600 ± 70 µM
